Test results as given in patent US20200239541A1 (XYPHOS BIOSCIENCES, published 2020).
Changes are numbered by the printed parent chain.

What was measured:
[1] = target: T1, biotinylated human NKG2D (Example 1) (human, UniProt P26718 78-216); experiment: BLI (Octet)
T1 construct: also called recombinant biotinylated NKG2D
T1 sequence (looked up): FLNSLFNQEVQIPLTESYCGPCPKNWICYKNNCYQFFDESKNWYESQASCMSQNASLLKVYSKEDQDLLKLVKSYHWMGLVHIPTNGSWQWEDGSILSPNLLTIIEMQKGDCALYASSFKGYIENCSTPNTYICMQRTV

[2] = target: T2, NKG2D on the human NK cell line NKL (human, UniProt P26718 1-216); experiment: cell-based or functional assay
T2 sequence (looked up): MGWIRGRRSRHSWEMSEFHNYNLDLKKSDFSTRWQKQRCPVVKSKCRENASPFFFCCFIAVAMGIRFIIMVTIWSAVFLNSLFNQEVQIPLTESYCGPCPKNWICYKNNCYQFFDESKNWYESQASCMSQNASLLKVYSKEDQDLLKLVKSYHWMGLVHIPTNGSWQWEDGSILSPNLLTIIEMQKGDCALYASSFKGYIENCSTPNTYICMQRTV

[3] = target: T1, biotinylated human NKG2D (Example 1); experiment: BLI (Octet), Kd = kOFF/kON
human NKG2D-Fc [4] = target: T3, human NKG2D-Fc (human, UniProt P26718 78-216); experiment: competition ELISA vs coated WT sMICA
T3 construct: also called natural NKG2D-Fc; not shown: Fc
T3 sequence (looked up): T1 sequence (looked up)
Source text: (§1) To the NKG2DLs in the above example, we directly attached heterologous molecules such as a polypeptide to each of these 4 modified α1-α2 NKG2DLs using a linker peptide. Four His-tagged proteins (SEQ ID NOs.: 25-28) consisting of modified NKG2DLs with attached heterologous molecules were expressed in insect cells and purified to characterize their NKG2D binding affinities and kinetic binding parameters. Using a competitive binding ELISA, we determined the relative NKG2D binding affinities of the 4 modified α1-α2 variants.

human NKG2D-Fc [5] = target: T3, human NKG2D-Fc; experiment: competition ELISA vs coated WT sMICA, 2 nM human NKG2D-Fc
Source text: as §1

[6] = target: T1, biotinylated human NKG2D (Example 1); experiment: BLI (Octet), biotinylated human NKG2D coated, 100 nM analyte

B1: α1-α2 variant 16 (His-tagged, with attached heterologous polypeptide) (ligand)
chain: EPHSLRYNLTVLSWDGSVQSGFLTEVHLDGQPFLRCDRQKCRAKPQGQWAEDVLGNKTWDRETRDLTGWGKDLRMTLAHIKDQKEGLHSLQEIRVCEIHEDNSTRSSQHFYYDGELFLSQNLETLEWTMPQSSRAQTLAMNVRNFLKEDAMETDTHYHAMRADCLQELRRYLKSGVVLRRTVPPMVQVTRSEASGGSGDRVTITCRASQDVSTAVAWYQQKPGKAPKLLIYSASFLYSGVPSRFSGSGSGTDFTLTISSLQPEDFATYYCQQSYTTPPTFGQGTKVEIKGGSSRSSSSGGGGSGGGGEVQLVESGGGLVQPGGSLRLSCAASGFTFTSTGISWVRQAPGKGLEWVGRIYPTNGSTNYADSVKGRFTISADTSKNTAYLQMNSLRAEDTAVYYCARTYGIYDLYVDYTEYVMDYWGQGTLVTVSSGGSSRSSSSGGGGSGGGGDIQMTQSPSSLSASGGSGQITVTCRASGFYPWNITLSWRQDGVSLSHDTQQWGDVLPDGQGTYQTWVATRISQGEEQRFTCYMEHSGQHSTHPVPSGKGSHHHHHH
fold affinity increase relative to WT α1-α2 [1]: ~30 fold
fold reduction in off-rate relative to WT [1]: 18 fold
NKL cell-mediated lysis of FGFR3-expressing P815 cells (calcein release) [2]: ~15 fold
Kd [3]: 0.5 nM
fold better binding than WT NKG2DL (human NKG2D-Fc [4]): 27 fold
IC50 (human NKG2D-Fc [5]): 0.7 nM
koff [6]: 9e-05 s⁻¹
kon [6]: 200000 M⁻¹ s⁻¹

B2: α1-α2 variant 18 (His-tagged, with attached heterologous polypeptide) (ligand)
chain: B1 chain with S20P, G68L
fold affinity increase relative to WT α1-α2 [1]: ~30 fold
fold reduction in off-rate relative to WT [1]: 18 fold
NKL cell-mediated lysis of FGFR3-expressing P815 cells (calcein release) [2]: ~15 fold
Kd [3]: 0.4 nM
fold better binding than WT NKG2DL (human NKG2D-Fc [4]): 38 fold
IC50 (human NKG2D-Fc [5]): 0.5 nM
koff [6]: 9e-05 s⁻¹
kon [6]: 230000 M⁻¹ s⁻¹

B3: α1-α2 variant 17 (His-tagged, with attached heterologous polypeptide) (ligand)
chain: B1 chain with G68L
fold affinity increase relative to WT α1-α2 [1]: ~30 fold
fold reduction in off-rate relative to WT [1]: 18 fold
NKL cell-mediated lysis of FGFR3-expressing P815 cells (calcein release) [2]: ~15 fold
Kd [3]: 0.4 nM
fold better binding than WT NKG2DL (human NKG2D-Fc [4]): 32 fold
IC50 (human NKG2D-Fc [5]): 0.6 nM
koff [6]: 7e-05 s⁻¹
kon [6]: 200000 M⁻¹ s⁻¹
